The test system of experiment [1] is PGE2 / human EP4 receptor in HEK293 Gα16 cells. In words: EP4 bioassay (Ca++ flux, neutralization of PGE2). The class given is cell-based. Conditions: EP4 bioassay, Ca++ flux. How it is done:
The ability of anti-PGE2 antibodies and anti-PGE2 containing DVD-Ig molecules to inhibit the cellular response of PGE2 was determined in a Ca++ flux assay in HEK293 Gα16 cells stably transfected with human EP4 receptor. Cells were plated in black/clear poly-D-lysine plates, (Corning #3667, Corning, N.Y.) and incubated with Ca++-sensitive dye (Molecular Devices) for 90 minutes. Stock PGE2 (in 200 proof ethanol) was diluted with FLIPR buffer (containing 1×HBSS (Invitrogen, Carlsbad, Calif.), 20 mM HEPES (Invitrogen, Carlsbad, Calif.), 0.1% BSA (Sigma, St. Louis, Mo.) and 2.5 mM Probenecid (Sigma, St. Louis, Mo.)). Anti-PGE2 antibodies, DVD-Ig molecules or isotype matched control antibodies were also pre-diluted in FLIPR buffer. 25 μl of PGE2 or pre-incubated PGE2/antibody mixture or pre-incubated PGE2/DVD-Ig molecule mixture was added to the wells pre-plated with cells. A dose response of PGE2 was done by a serial titration of PGE2 and was determined using FLIPR1 or Tetra (Molecular Devices). EC50 was determined using GraphPad Prism 5 (GraftPad Software, La Jolla, Calif.). […] Ca++ flux was monitored using FLIPR1 and data was analyzed using GraphPad Prism 5.
The ability of anti-PGE2 antibodies and anti-PGE2 containing DVD-Ig molecules to inhibit the cellular response of PGE2 was determined in a Ca++ flux assay using stably transfected human EP4 in HEK293 Gα16 cells. Cells were plated in black/clear Poly-D-Lysine plates, (Corning #3667) and incubated with Ca++-sensitive dye (Molecular Devices) for 90 minutes. Stock PGE2 (in 200 proof ethanol) was diluted with FLIPR buffer (containing 1×HBSS, 20 mM HEPES, 0.1% BSA and 2.5 mM Probenecid). Anti-PGE2 antibodies, DVD-Ig molecules or isotype matched control antibodies were also pre-diluted in FLIPR buffer. 25 μl of PGE2 or pre-incubated PGE2/antibody mixture or pre-incubated PGE2/DVD-Ig molecule mixture was added to the wells pre-plated with cells. A dose response of PGE2 was done by a serial titration of PGE2 and was determined using FLIPR1 or Tetra (Molecular Devices). EC50 was determined using GraphPad Prism 5. […] Ca++ flux was monitored using FLIPR1 and data was analyzed using GraphPad Prism 5.

Experiment [2] in a line: PGE2-biotinamide ELISA (PGE2 binding). How it is done: (§1) Enzyme linked immunosorbent assays to screen for anti-PGE2 antibodies or anti-PGE2 containing DVD-Ig molecules that bind prostaglandin E2 were performed as follows. ELISA plates (Costar 3369, Corning, N.Y.) were coated with 50 μl of anti-host Fc IgG (Sigma, St. Louis, Mo.) at 2 μg/ml in PBS (Invitrogen Carlsbad, Calif.). Following an overnight incubation at 4° C., the plate was blocked with 200 μl Superblock (Pierce #37535, Rockford, Ill.). The IgG or DVD-Ig containing samples were diluted to 1 μg/ml in Assay Buffer (10% Superblock in PBS containing 0.05% Surfactamps (Pierce #37535, Rockford, Ill.) and incubated on the plate at 50 μl/well for 1 hour at room temperature. Following the incubation, plates were washed four times with TTBS (Tween-Tris Buffered Solution). For PGE2 binding, PGE2-biotinamide (Cayman Chemicals, Ann Arbor, Mich.) was diluted to 30 nM and serially diluted in Assay Buffer. The titration curve was added to each IgG or DVD-Ig sample at a volume of 50 μl/well and incubated for 1 hour at room temperature. The plates were washed as previously described and 50 μl/well of 1:5000 dilution of streptavidin polyhrp40 (Fitzgerald Industries, Concord, Mass.) in Assay Buffer was added and incubated for 45 minutes at room temperature. A final wash step was performed and the plates were developed using a single step TMB system (Sigma #T8665, St. Louis, Mo.) and 2N H2SO4. Plates were read at 450 nm on a Molecular Devices Spectramax plate reader (Sunnyvale, Calif.). EC50 was determined using GraphPad Prism 5 (GraphPad Software, La Jolla, Calif.) (FIG. 2).
as §1, with “ELISA” for “Enzyme linked immunosorbent assays to screen for anti-PGE2 antibodies or anti-PGE2 containing DVD-Ig molecules that bind prostaglandin E2 were performed as follows. ELISA”, “(Invitrogen,” for “(Invitrogen”, “IgG” for “IgG or DVD-Ig”, “Solution).” for “Solution). For PGE2 binding,”, “Calif.).” for “Calif.) (FIG. 2).”

[3] abbreviates: PGE2 VD in N-terminal position, read-out: N-terminal VD PGE2 Neutralization EC50.
The mark [4] stands for this setting: PGE2 VD in N-terminal position, read-out: Direct Bind ELISA N-terminal VD EC50.
The mark [5] stands for this setting: PGE2 VD in C-terminal position, read-out: C-terminal VD PGE2 Neutralization EC50.
[6] abbreviates: PGE2 VD in C-terminal position, read-out: Direct Bind ELISA C-terminal VD EC50.

In patent US8822645B2, “Prostaglandin E2 dual variable domain immunoglobulins and uses thereof” (AbbVie Inc., priority 2008, dated 2014) one finds EC50 data, which are given here for six molecules.

Read-outs that look alike come from different tables or passages of the source.

B1: DVD161: DVD-Ig construct listed in Table 4 (antibody)
VH: EVQLVQSGAEVKKPGASVKVSCKASGYTFTKYWLGWVRQAPGQGLEWMGDIYPGYDYTHYNEKFKDRVTLTTDTSTSTAYMELRSLRSDDTAVYYCARSDGSSTYWGQGTLVTVSSASTKGPEVQLVESGGGLVQPGGSLRLSCAASGYTFTNYGMNWVRQAPGKGLEWVGWINTYTGEPTYAADFKRRFTFSLDTSKSTAYLQMNSLRAEDTAVYYCAKYPHYYGSSHWYFDVWGQGTLVTVSS
VL: DVLMTQTPLSLPVTPGEPASISCTSSQNIVHSNGNTYLEWYLQKPGQSPQLLIYKVSNRFSGVPDRFSGSGSGTDFTLKISRVEAEDVGVYYCFQVSHVPYTFGGGTKVEIKRTVAAPDIQMTQSPSSLSASVGDRVTITCSASQDISNYLNWYQQKPGKAPKVLIYFTSSLHSGVPSRFSGSGSGTDFTLTISSLQPEDFATYYCQQYSTVPWTFGQGTKVEIKR
In the case of B1, the EC50 in experiment [1] (setting [3]) stood at 193 pM; in experiment [2] (setting [4]), 1020 pM.

B2: DVD157: DVD-Ig construct listed in Table 4 (antibody)
VH: EVQLVQSGAEVKKPGASVKVSCKASGYTFTKYWLGWVRQAPGQGLEWMGDIYPGYDYTHYNEKFKDRVTLTTDTSTSTAYMELRSLRSDDTAVYYCARSDGSSTYWGQGTLVTVSSASTKGPQVQLVESGGGVVQPGRSLRLSCAASGFTFSVYGMNWVRQAPGKGLEWVAIIWYDGDNQYYADSVKGRFTISRDNSKNTLYLQMNGLRAEDTAVYYCARDLRTGPFDYWGQGTLVTVSS
VL: DVLMTQTPLSLPVTPGEPASISCTSSQNIVHSNGNTYLEWYLQKPGQSPQLLIYKVSNRFSGVPDRFSGSGSGTDFTLKISRVEAEDVGVYYCFQVSHVPYTFGGGTKVEIKRTVAAPEIVLTQSPDFQSVTPKEKVTITCRASQSIGSSLHWYQQKPDQSPKLLIKYASQSFSGVPSRFSGSGSGTDFTLTINSLEAEDAAAYYCHQSSSLPFTFGPGTKVDIKR
Consider B2, for which the figures for the EC50 in experiment [1] (setting [3]) and in experiment [2] (setting [4]) were 217 pM and 1230 pM, respectively.

B3: AB048: parent antibody, PGE2, SEQ ID 48/49 (antibody, V domains shown)
VH: EVQLVQSGAEVKKPGASVKVSCKASGYTFTKYWLGWVRQAPGQGLEWMGDIYPGYDYTHYNEKFKDRVTLTTDTSTSTAYMELRSLRSDDTAVYYCARSDGSSTYWGQGTLVTVSS
VL: DVLMTQTPLSLPVTPGEPASISCTSSQNIVHSNGNTYLEWYLQKPGQSPQLLIYKVSNRFSGVPDRFSGSGSGTDFTLKISRVEAEDVGVYYCFQVSHVPYTFGGGTKVEIKR
On to B3, for which the EC50 turned out to be 17 pM in experiment [1] (parent antibody (cell spans both VD columns), read-out: PGE2 Neutralization EC50) and 1490 pM in experiment [2] (parent antibody (cell spans both VD columns), read-out: Direct Bind ELISA EC50 (PGE2 binding)).

B4: DVD164: DVD-Ig construct listed in Table 4 (antibody)
VH: QVQLQESGPGLVKPSETLSLTCTVSGFSLIGYDLNWIRQPPGKGLEWIGIIWGDGTTDYNSAVKSRVTISKDTSKNQFSLKLSSVTAADTAVYYCARGGYWYATSYYFDYWGQGTLVTVSSASTKGPEVQLVQSGAEVKKPGASVKVSCKASGYTFTKYWLGWVRQAPGQGLEWMGDIYPGYDYTHYNEKFKDRVTLTTDTSTSTAYMELRSLRSDDTAVYYCARSDGSSTYWGQGTLVTVSS
VL: DIQMTQSPSSLSASVGDRVTITCRASQSISNNLNWYQQKPGKAPKLLIYYTSRFHSGVPSRFSGSGSGTDFTFTISSLQPEDIATYYCQQEHTLPYTFGQGTKLEIKRTVAAPDVLMTQTPLSLPVTPGEPASISCTSSQNIVHSNGNTYLEWYLQKPGQSPQLLIYKVSNRFSGVPDRFSGSGSGTDFTLKISRVEAEDVGVYYCFQVSHVPYTFGGGTKVEIKR
In the case of B4, the EC50 in experiment [1] (setting [5]) is 79 pM; in experiment [2] (setting [6]), 1300 pM.

B5: DVD162: DVD-Ig construct listed in Table 4 (antibody)
VH: EVQLVESGGGLVQPGGSLRLSCAASGYTFTNYGMNWVRQAPGKGLEWVGWINTYTGEPTYAADFKRRFTFSLDTSKSTAYLQMNSLRAEDTAVYYCAKYPHYYGSSHWYFDVWGQGTLVTVSSASTKGPEVQLVQSGAEVKKPGASVKVSCKASGYTFTKYWLGWVRQAPGQGLEWMGDIYPGYDYTHYNEKFKDRVTLTTDTSTSTAYMELRSLRSDDTAVYYCARSDGSSTYWGQGTLVTVSS
VL: DIQMTQSPSSLSASVGDRVTITCSASQDISNYLNWYQQKPGKAPKVLIYFTSSLHSGVPSRFSGSGSGTDFTLTISSLQPEDFATYYCQQYSTVPWTFGQGTKVEIKRTVAAPDVLMTQTPLSLPVTPGEPASISCTSSQNIVHSNGNTYLEWYLQKPGQSPQLLIYKVSNRFSGVPDRFSGSGSGTDFTLKISRVEAEDVGVYYCFQVSHVPYTFGGGTKVEIKR
Consider B5, for which the figures for the EC50 in experiment [1] (setting [5]) and in experiment [2] (setting [6]) were 67 pM and 1320 pM, respectively.

B6: DVD158: DVD-Ig construct listed in Table 4 (antibody)
VH: QVQLVESGGGVVQPGRSLRLSCAASGFTFSVYGMNWVRQAPGKGLEWVAIIWYDGDNQYYADSVKGRFTISRDNSKNTLYLQMNGLRAEDTAVYYCARDLRTGPFDYWGQGTLVTVSSASTKGPEVQLVQSGAEVKKPGASVKVSCKASGYTFTKYWLGWVRQAPGQGLEWMGDIYPGYDYTHYNEKFKDRVTLTTDTSTSTAYMELRSLRSDDTAVYYCARSDGSSTYWGQGTLVTVSS
VL: EIVLTQSPDFQSVTPKEKVTITCRASQSIGSSLHWYQQKPDQSPKLLIKYASQSFSGVPSRFSGSGSGTDFTLTINSLEAEDAAAYYCHQSSSLPFTFGPGTKVDIKRTVAAPDVLMTQTPLSLPVTPGEPASISCTSSQNIVHSNGNTYLEWYLQKPGQSPQLLIYKVSNRFSGVPDRFSGSGSGTDFTLKISRVEAEDVGVYYCFQVSHVPYTFGGGTKVEIKR
Turning to B6, the figures for the EC50 in experiment [1] (setting [5]) and in experiment [2] (setting [6]) were 210 pM and 1140 pM, respectively.
